Assay results taken from PMC8535469, “Insight into the Binding and Hydrolytic Preferences of hNudt16 Based on Nucleotide Diphosphate Substrates” (International Journal of Molecular Sciences, 2021).

Biological target: the molecule itself
Experiment: SAXS; 2.618 mg/mL hNudt16 in 20 mM HEPES pH 7.9, 300 mM NaCl, 10% glycerol, 0.5 mM TCEP, 20 mM MgCl2; room temperature; scattering compared with crystal structures of the dimer (CRYSOL) and ab initio model (DAMMIN)

B1: human Nudt16 protein (hNudt16), wild type (enzyme, UniProt Q96DE0 1-195, looked up)
chain: MAGARRLELGEALALGSGWRHACHALLYAPDPGMLFGRIPLRYAILMQMRFDGRLGFPGGFVDTQDRSLEDGLNRELREELGEAAAAFRVERTDYRSSHVGSGPRVVAHFYAKRLTLEELLAVEAGATRAKDHGLEVLGLVRVPLYTLRDGVGGLPTFLENSFIGSAREQLLEALQDLGLLQSGSISGLKIPAHH
notes: human Nudt16 (hNudt16), NUDIX hydrolase; also called hNudt16 WT
Question: For B1, which “stoichiometry N” value is on record?
Answer: The value was 2.
